The target in experiment [1] is C1q (human) (UniProt P02745). Briefly: FACS, C1q titrated on Daudi cells opsonized with the mix; Exp. 6. For orientation: A flow cytometer gives signals particle by particle.
For experiment [2], the target named is C1q (human) (UniProt P02745). Briefly: cell-based or functional assay.
For experiment [3], the target named is C1q (human) (UniProt P02745). Briefly: C1q binding ELISA: antibody coated in a dilution series (0.58-10 µg/mL), 3% pooled human serum as source of C1q, rabbit anti-human C1q and swine anti-rabbit IgG-HRP, ABTS, OD 405 nm. In general terms: ELISA stands for enzyme-linked immunosorbent assay.
In experiment [4] the target is C1q (human) (UniProt P02745). Nature of the experiment: FACS, C1q titrated on mAb-opsonized Raji cells; Exp. 1.
Experiment [5] concerns the target C1q (human) (UniProt P02745). Nature of the experiment: FACS, C1q titrated on mAb-opsonized Daudi cells; Exp. 10.
In experiment [6] the target is C1q (human) (UniProt P02745). Nature of the experiment: FACS, C1q titrated on mAb-opsonized Daudi cells; Exp. 1.
Experiment [7] addresses C1q (human) (UniProt P02745). Nature of the experiment: FACS, C1q titrated on mAb-opsonized Daudi cells; Exp. 11.
The target in experiment [8] is C1q (human) (UniProt P02745). Briefly: FACS, C1q titrated on mAb-opsonized Raji cells; Exp. 3.
Experiment [9] concerns the target C1q (human) (UniProt P02745). Briefly: C1q ELISA, coated antibody series + 3% human serum; mean.

The values that follow come from US20140242075A1.

pKd: −log10 of the molar value.

Sequence of C1q (human) (P02745 23-245 limits assumed, chain 1 of 3): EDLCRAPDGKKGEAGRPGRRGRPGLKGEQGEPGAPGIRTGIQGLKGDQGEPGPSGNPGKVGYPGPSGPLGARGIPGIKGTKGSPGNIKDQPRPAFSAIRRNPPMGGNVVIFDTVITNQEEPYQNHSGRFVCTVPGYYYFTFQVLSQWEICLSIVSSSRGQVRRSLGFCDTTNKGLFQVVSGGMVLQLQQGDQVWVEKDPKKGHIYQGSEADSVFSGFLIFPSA
Sequence of C1q (human) (P02746 28-253 limits assumed, chain 2 of 3, further chain): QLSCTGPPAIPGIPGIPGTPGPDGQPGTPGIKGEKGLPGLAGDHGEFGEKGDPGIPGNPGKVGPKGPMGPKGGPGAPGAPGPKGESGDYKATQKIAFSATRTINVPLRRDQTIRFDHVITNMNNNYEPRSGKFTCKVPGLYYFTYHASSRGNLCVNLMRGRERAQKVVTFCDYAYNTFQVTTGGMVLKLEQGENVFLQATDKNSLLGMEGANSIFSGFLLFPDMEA
Sequence of C1q (human) (P02747 29-245 limits assumed, chain 3 of 3, further chain): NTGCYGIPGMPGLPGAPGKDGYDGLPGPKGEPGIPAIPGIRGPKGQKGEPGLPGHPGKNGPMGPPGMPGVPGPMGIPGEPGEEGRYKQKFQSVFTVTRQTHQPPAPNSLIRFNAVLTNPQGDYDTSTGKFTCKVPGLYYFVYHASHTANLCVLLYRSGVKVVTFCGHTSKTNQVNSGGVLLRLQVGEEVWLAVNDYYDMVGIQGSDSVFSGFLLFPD
Sequence of IgG1-7D8-E345R (antibody) (heavy, form in doubt): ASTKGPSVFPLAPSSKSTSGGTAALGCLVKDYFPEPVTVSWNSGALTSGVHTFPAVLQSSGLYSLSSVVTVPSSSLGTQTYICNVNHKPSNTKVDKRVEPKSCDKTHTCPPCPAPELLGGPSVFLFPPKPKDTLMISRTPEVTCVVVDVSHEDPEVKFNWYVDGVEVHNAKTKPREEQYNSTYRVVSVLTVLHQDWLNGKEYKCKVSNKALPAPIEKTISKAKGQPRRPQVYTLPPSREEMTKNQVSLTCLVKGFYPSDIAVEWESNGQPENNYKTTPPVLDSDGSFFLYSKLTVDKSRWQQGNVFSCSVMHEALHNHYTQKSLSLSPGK

Take 7D8-K439E + 7D8-S440K mix: in experiment [1], the negative logarithm of the Kd (pKd) – broadly, the negative decadic logarithm of the Kd, by convention in mol/L – is 8.44. Moreover, in experiment [2], the CH50 for C1q efficacy in a CDC assay on Raji cells came out at 1.33 µg/mL. Substance IgG1-7D8-E345R (antibody) had a CH50 for C1q efficacy in a CDC assay on Raji cells in experiment [2] of 0.03 µg/mL. In experiment [2], IgG1-7D8-E382R (antibody) came in with a CH50 for C1q efficacy in a CDC assay on Raji cells of 0.77 µg/mL. IgG1-7D8-G385D (antibody) gave a CH50 for C1q efficacy in a CDC assay on Raji cells in [2] of 22.5 µg/mL. In the case of IgG1-7D8-H310K (antibody), the CH50 for C1q efficacy in a CDC assay on Raji cells in experiment [2] is above 30 µg/mL. Substance IgG1-7D8-H433A (antibody) had a CH50 for C1q efficacy in a CDC assay on Raji cells in experiment [2] above 30 µg/mL. For the substance IgG1-7D8-H433D (antibody), the CH50 for C1q efficacy in a CDC assay on Raji cells in [2] was above 30 µg/mL.

IgG1-7D8-H433R (antibody) came in with a CH50 for C1q efficacy in a CDC assay on Raji cells in experiment [2] of 0.16 µg/mL. For IgG1-7D8-H435A (antibody), in experiment [2], the CH50 for C1q efficacy in a CDC assay on Raji cells was determined as 0.96 µg/mL. On to IgG1-7D8-H435R (antibody), for which the CH50 for C1q efficacy in a CDC assay on Raji cells in experiment [2] was 0.24 µg/mL. Besides, in experiment [3], the EC50 (read off the curve) (commonly the concentration at which the effect is half-maximal) stood at 2 µg/mL. As for IgG1-7D8-I253A (antibody), in experiment [2], the CH50 for C1q efficacy in a CDC assay on Raji cells was 11.2 µg/mL. Take IgG1-7D8-I253D (antibody): the CH50 for C1q efficacy in a CDC assay on Raji cells in experiment [2] is above 30 µg/mL. Still for that read-out and setting: for IgG1-7D8-I253D/H433A (antibody) the value was above 30 µg/mL; for IgG1-7D8-I253Y (antibody), 16.1 µg/mL. As to IgG1-7D8-K322A (antibody), in experiment [2], the CH50 for C1q efficacy in a CDC assay on Raji cells is above 30 µg/mL and the EC50 calculated from the CDC assay on Daudi cells (antibody concentration resulting in 50% lysis) was above 30 µg/mL. For IgG1-7D8-K439E (antibody), in [2], the CH50 for C1q efficacy in a CDC assay on Raji cells was above 30 µg/mL. Turning to IgG1-7D8-K439E/S440K (antibody), the CH50 for C1q efficacy in a CDC assay on Raji cells in experiment [2] was determined as 0.09 µg/mL.

For the substance IgG1-7D8-N434A (antibody), the CH50 for C1q efficacy in a CDC assay on Raji cells in experiment [2] worked out at 21.2 µg/mL. Still for that read-out and setting: for IgG1-7D8-Q311A (antibody) the value was 0.63 µg/mL; for IgG1-7D8-Q438D (antibody), above 30 µg/mL.

In [2], IgG1-7D8-S440K (antibody) showed a CH50 for C1q efficacy in a CDC assay on Raji cells above 30 µg/mL. Consider IgG1-7D8-WT (antibody), for which the pKd in experiment [4] was 8.32; in experiment [5] it was 7.93; in [6] it was 8.11; in experiment [7], 7.88; in [8] it was 7.96. Besides, in experiment [2], the CH50 for C1q efficacy in a CDC assay on Raji cells is 0.49 µg/mL. For the same substance, in [9], the concentration for a half-maximal effect (EC50) (commonly the concentration needed to bring the measured effect to its halfway point) is 2.05 µg/mL. Take IgG1-7D8-Y436D (antibody): in experiment [2], the CH50 for C1q efficacy in a CDC assay on Raji cells was above 30 µg/mL.
